According to paper PMC6458997:

Columns and labels:
[1] = target: T1, AimR N202A (SPbeta) (Bacillus subtilis phage SPbeta (cloned …, UniProt O31927 1-386, N202A)); assay: EMSA; apo; WT probe assumed; EMSA: 50 mM HEPES pH 7.5, 5 mM MgCl2, 75 mM NaCl, 0.5 mM EDTA; 0.4 uM DNA, 4 uM AimR; 10 min at room temperature; 8% PAGE in TBE at 4 C or agarose in TAE at room temperature; details: protein: recombinant; tags: N-terminal 6xHis-TEV, cleaved (as WT); chain copies: 2
T1 sequence: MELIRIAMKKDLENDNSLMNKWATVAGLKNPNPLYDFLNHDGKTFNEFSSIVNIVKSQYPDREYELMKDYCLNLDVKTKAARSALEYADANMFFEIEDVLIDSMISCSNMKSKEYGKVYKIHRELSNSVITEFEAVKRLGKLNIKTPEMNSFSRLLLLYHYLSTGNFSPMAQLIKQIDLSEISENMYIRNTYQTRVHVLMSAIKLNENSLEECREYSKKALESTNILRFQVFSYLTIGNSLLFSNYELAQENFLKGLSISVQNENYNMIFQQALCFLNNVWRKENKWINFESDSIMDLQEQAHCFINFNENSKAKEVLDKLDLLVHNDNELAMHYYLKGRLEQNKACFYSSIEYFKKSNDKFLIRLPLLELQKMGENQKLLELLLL

[2] = target: T2, AimR D360A (SPbeta) (Bacillus subtilis phage SPbeta (cloned …, UniProt O31927 1-386, D360A)); assay: as above; details: protein: recombinant; tags: N-terminal 6xHis-TEV, cleaved (as WT); chain copies: 2
T2 sequence: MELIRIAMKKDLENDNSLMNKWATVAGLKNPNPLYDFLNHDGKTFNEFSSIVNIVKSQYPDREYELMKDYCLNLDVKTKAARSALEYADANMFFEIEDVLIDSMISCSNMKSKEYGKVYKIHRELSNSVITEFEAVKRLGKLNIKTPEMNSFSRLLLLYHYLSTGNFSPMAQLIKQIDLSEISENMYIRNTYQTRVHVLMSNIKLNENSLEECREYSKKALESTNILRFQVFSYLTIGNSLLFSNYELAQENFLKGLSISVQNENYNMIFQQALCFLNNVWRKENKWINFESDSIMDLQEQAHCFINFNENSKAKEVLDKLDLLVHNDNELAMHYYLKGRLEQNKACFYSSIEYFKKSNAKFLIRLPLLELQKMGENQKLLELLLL

B1: SPbeta operator WT 45 bp (dsDNA)
DNA 1: GTTGATCACTAGATGTTATTAAAACCTAATATTTAAGTGATGGCC
DNA 2: GGCCATCACTTAAATATTAGGTTTTAATAACATCTAGTGATCAAC
[1]
  binding result: binds
[2]
  binding result: no binding
